What was measured:
[1] = molecular target: T1, TIAR (TIAR-b, short isoform) (UniProt Q01085 1-375); assay: UV crosslinking
T1 sequence: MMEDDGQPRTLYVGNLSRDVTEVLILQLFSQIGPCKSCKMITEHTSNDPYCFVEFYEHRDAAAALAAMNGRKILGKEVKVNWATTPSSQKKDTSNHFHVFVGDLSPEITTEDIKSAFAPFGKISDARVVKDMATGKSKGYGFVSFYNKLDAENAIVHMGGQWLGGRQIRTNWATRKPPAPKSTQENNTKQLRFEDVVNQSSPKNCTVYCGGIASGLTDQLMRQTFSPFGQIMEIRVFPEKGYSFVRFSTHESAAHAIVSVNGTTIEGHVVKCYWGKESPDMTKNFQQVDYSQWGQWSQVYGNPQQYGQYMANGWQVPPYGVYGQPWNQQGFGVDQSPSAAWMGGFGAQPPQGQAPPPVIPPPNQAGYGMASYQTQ

[2] = molecular target: T1, TIAR (TIAR-b, short isoform); assay: UV crosslinking + immunoprecipitation
[3] = molecular target: T1, TIAR (TIAR-b, short isoform); assay: competition
TIA-1 = molecular target: T2, TIA-1 (UniProt P31483 1-386); assay: UV crosslinking
T2 sequence: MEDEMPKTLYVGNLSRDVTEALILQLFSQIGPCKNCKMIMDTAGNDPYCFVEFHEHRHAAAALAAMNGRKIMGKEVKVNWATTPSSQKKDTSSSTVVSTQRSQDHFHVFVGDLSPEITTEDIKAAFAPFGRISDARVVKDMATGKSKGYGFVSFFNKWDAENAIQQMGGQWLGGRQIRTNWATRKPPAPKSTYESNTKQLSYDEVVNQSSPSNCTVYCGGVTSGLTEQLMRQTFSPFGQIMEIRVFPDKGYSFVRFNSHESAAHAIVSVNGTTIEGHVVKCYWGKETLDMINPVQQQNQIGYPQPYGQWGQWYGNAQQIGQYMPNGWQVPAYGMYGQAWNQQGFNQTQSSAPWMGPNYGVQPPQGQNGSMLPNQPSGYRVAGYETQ

TIAR RRM1 = molecular target: T3, TIAR RRM1 (UniProt Q01085 2-93); assay: UV crosslinking titration
T3 sequence: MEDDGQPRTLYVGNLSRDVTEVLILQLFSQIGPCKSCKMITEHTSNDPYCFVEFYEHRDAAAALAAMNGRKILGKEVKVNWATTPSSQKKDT

[4] = molecular target: T1, TIAR (TIAR-b, short isoform); assay: UV crosslinking; remark: listed apart in the source
HuR = HuR (UniProt Q15717 1-326); assay: UV crosslinking
HuR, sequence (Q15717 whole entry): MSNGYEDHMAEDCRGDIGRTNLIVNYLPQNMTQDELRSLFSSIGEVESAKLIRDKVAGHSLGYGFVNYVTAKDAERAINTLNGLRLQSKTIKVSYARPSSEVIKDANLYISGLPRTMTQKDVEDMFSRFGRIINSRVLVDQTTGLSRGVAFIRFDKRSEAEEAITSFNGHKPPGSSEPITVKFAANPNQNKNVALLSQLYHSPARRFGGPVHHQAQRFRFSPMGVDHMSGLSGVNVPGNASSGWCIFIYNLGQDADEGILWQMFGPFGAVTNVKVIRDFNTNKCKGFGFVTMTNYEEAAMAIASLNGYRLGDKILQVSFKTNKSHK

TIAR RRM2,3 = molecular target: T4, TIAR RRM2,3 (UniProt Q01085 94-375); assay: UV crosslinking titration
T4 sequence: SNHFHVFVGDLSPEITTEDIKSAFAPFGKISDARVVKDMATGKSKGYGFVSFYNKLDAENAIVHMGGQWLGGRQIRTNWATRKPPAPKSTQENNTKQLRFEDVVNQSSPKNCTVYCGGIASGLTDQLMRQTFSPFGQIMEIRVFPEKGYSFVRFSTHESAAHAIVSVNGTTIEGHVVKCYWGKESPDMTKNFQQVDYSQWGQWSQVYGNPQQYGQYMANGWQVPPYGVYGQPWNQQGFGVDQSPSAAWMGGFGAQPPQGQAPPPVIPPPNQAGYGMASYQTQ

[5] = molecular target: T1, TIAR (TIAR-b, short isoform); assay: EMSA
[6] = molecular target: T1, TIAR (TIAR-b, short isoform); assay: UV crosslinking; remark: listed apart in the source

TTAATATCTAAAATAAAATAAATT (ssDNA) [IL8-AS1]
binding result [1]: no binding

TAAAAATAAATATGTACTACGGAATATCTCGAAAAAC (ssDNA) [VEGF-AS4]
binding result [1]: no binding

B1: T7tiar/T7 partial duplex template (mixed)
DNA 1: AAGATGAGAATAGTATTTTTTTTTTTTCGTATTGGAACAATATAAACAATACTATCCCTATAGTGAGTCGTATTA
DNA 2: TAATACGACTCACTATAGGG
binding result [2]: binds

AAAATGCTTTTTTT (ssDNA) [VEGF-AS1b.2]
binding result [3]: no binding

AAAAUGCUUUUUUUUUUUUA (ssRNA) [rVEGF-AS1]
binding result (TIA-1): binds | binding result (TIAR RRM1): no binding

AAAATGCTTTTTTTTTTTTA (ssDNA) [VEGF-AS1b]
binding result [1]: binds

B2: T7tiar full-length transcript (ssRNA)
RNA: GGGAUAGUAUUGUUUAUAUUGUUCCAAUACGAAAAAAAAAAAAUACUAUUCUCAUCUU
binding result [4]: binds

AGAATTAAATTCTTTAATACAAAATGCTTTTTTTTTTTTA (ssDNA) [VEGF-AS1]
binding result (TIA-1): binds | binding result (HuR): no binding | Kd (TIAR RRM2,3): 3 nM

CTTTTTTAATTTTAATATTTGTTATCATTTATTTATT (ssDNA) [VEGF-S2]
binding result [4]: binds

TTTTTTTTTTTTTTT (ssDNA) [oligo(dT)15]
binding result [1]: binds

AATAAATAAATGATAACAAATATTAAAATTAAAAAAG (ssDNA) [VEGF-AS2]
binding result (TIA-1): no binding | binding result [5]: no binding | binding result (TIAR RRM1): no binding | binding result (HuR): no binding

B3: VEGF-S2/VEGF-AS2 duplex (dsDNA)
DNA 1: CTTTTTTAATTTTAATATTTGTTATCATTTATTTATT
DNA 2: AATAAATAAATGATAACAAATATTAAAATTAAAAAAG
binding result [6]: no binding

From publication PMC1184220
